From publication PMC4336284

Tested on: T1, GAF (GAGA-binding factor), His-GAF (Drosophila melanogaster), Q08605-2
T1 sequence: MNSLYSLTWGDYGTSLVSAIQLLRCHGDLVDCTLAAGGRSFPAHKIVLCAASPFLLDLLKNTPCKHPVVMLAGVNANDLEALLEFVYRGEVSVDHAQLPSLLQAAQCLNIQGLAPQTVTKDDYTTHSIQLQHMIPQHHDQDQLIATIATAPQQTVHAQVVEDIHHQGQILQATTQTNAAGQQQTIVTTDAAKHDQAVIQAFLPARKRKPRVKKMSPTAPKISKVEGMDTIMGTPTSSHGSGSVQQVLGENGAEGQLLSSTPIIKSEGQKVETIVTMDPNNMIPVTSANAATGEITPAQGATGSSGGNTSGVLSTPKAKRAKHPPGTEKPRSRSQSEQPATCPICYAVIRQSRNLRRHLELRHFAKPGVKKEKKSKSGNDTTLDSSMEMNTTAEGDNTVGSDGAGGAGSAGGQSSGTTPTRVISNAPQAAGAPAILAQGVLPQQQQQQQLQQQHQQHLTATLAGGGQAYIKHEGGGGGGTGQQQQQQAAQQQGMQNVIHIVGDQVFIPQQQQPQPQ
Assay: EMSA
Conditions: GAF: band shift buffer of cited ref 25 (composition not given), poly(dI-dC) 10 ng, 4.5% acrylamide Tris/borate/EDTA gel; HSF: 10 ug extract protein, as in ref …

CTGTTCTCGTTGCTTCGAGAGAGCGCGCCTCGAATGTTCGCGAAAAGAGCGCCGGAGTATAAATAGAGGAGCTTCGTCGACGGAGAGTCAA (double strand) [hsp70Aa promoter PCR fragment]
binding: binds
